The record followed here is PMC7752791, “Dehydroquinate dehydratase/shikimate dehydrogenases involved in gallate biosynthesis of the aluminum-tolerant tree species Eucalyptus camaldulensis” (Planta, 2020).

What all share (type): biochemical, Eucalyptus camaldulensis
Substrate in data set [1]: NC(=O)c1ccc[n+]([C@@H]2O[C@H](COP(=O)(O)OP(=O)(O)OC[C@H]3O[C@@H](n4cnc5c(N)ncnc54)[C@H](OP(=O)(O)O)[C@@H]3O)[C@@H](O)[C@H]2O)c1
Description: purified protein. To be noted: shikimate oxidation, pH 9, 30 °C, varied: cofactor.

Substrate in data set [2]: NC(=O)C1=CN([C@@H]2O[C@H](COP(=O)(O)OP(=O)(O)OC[C@H]3O[C@@H](n4cnc5c(N)ncnc54)[C@H](OP(=O)(O)O)[C@@H]3O)[C@@H](O)[C@H]2O)C=CC1
Nature of the data set: purified protein. To be noted: shikimate formation from 3-DHS, varied: cofactor.

Substrate in data set [3]: O=C(O)C1=C[C@@H](O)[C@@H](O)[C@H](O)C1
Nature of the data set: purified protein. To be noted: shikimate oxidation with NADP+, pH 9, 30 °C.

Substrate in data set [4]: O=C(O)C1=CC(=O)[C@@H](O)[C@H](O)C1
Nature of the data set: purified protein. To be noted: shikimate formation with NADPH.

Substrate in data set [5]: O=C1C[C@@](O)(C(=O)O)C[C@@H](O)[C@@H]1O
Nature of the data set: HPLC of 3-DHS formed, Michaelis-Menten fit. To be noted: DQD activity, no cofactor, pH 7, 30 °C. The source says: HPLC of 3-DHS formed, Michaelis-Menten fit on EcDQD/SDH2

Substrate in data set [6]: NC(=O)c1ccc[n+]([C@@H]2O[C@H](COP(=O)(O)OP(=O)(O)OC[C@H]3O[C@@H](n4cnc5c(N)ncnc54)[C@H](O)[C@@H]3O)[C@@H](O)[C@H]2O)c1
Description: purified protein. To be noted: quinate oxidation, pH 9, 30 °C, varied: cofactor.

Substrate in data set [7]: O=C(O)[C@]1(O)C[C@@H](O)[C@@H](O)[C@H](O)C1
Description: purified protein. To be noted: quinate oxidation with NAD+, pH 9, 30 °C.

Substrate in data set [8]: NC(=O)C1=CN([C@@H]2O[C@H](COP(=O)(O)OP(=O)(O)OC[C@H]3O[C@@H](n4cnc5c(N)ncnc54)[C@H](O)[C@@H]3O)[C@@H](O)[C@H]2O)C=CC1
Description: purified protein. To be noted: quinate formation from 3-DHQ, pH 7.5, 30 °C, varied: cofactor.

Substrate in data set [9]: O=C1C[C@@](O)(C(=O)O)C[C@@H](O)[C@@H]1O
Description: purified protein. To be noted: quinate formation with NADH, pH 7.5, 30 °C.

Substrate in data set [10]: O=C1C[C@@](O)(C(=O)O)C[C@@H](O)[C@@H]1O
Nature of the data set: HPLC of 3-DHS formed, Michaelis-Menten fit. To be noted: DQD activity, no cofactor, pH 7, 30 °C. The text has this: HPLC of 3-DHS formed, Michaelis-Menten fit on EcDQD/SDH3
This is another data set of the same source.

Substrate in data set [11]: O=C1C[C@@](O)(C(=O)O)C[C@@H](O)[C@@H]1O
Description: HPLC of 3-DHS formed, Michaelis-Menten fit. To be noted: DQD activity, no cofactor, pH 7, 30 °C. The source says: HPLC of 3-DHS formed, Michaelis-Menten fit on EcDQD/SDH1
The source holds these as a separate data set.

B1: EcDQD/SDH2 (Eucalyptus camaldulensis) (protein)
chain: TLSSIPLTAADLQIPAGGRRNSTLLCAPVMGESVDQMLGQIRAAKEQGADLVEVRLDFLKSFSPKQDLEILLKQSALPTLVTYRPKWEGGQYEGDDSQRLDALRLALELGADYVDVELQVAQEFFSSIQGKKPEKAKIIVSSHNYQNTPSSEELGNLVAKIQATGADIVKIATTALDISDCPRIFEVLAHSQVPTIAIAMGERGLISRILAAKFGGYLTFGAIEAGVVSAPGQPSIKDLLDLYNLRQLGPDTKVHGVIGKPIGHSKSPHLYNAAFKSVNFNGIYLPLLVDNVANFINAYSSPDFVGYSYTIPHKEDGLRCCDEVDPIAKAIGAISQMIRRPTDGKMIGYNVDYLGAIAAIEEALRASNGASPTTTSPLAGKLFVVIGAGGAGKALAYGAMEKGARVVVANRTYEKAKELASKVGGQAITLAELENFHPEDGMVLANTTSVGMKPNVDLTPLPKNALSRYCLVFDAIYTPKLTRLLREAQEVGAIPVYGTEMFINQAFVQFERFTGYPAPKQLIRDTLVKNS
notes: genome locus by order of listing EcC035206.10
On to B1, for which the Km in “purified protein [1]” amounted to 65.2 ± 2.7 µM; in “purified protein [2]” (pH 8.5, 30 °C) it was 4.38 ± 0.43 µM; in the data set “purified protein [3]”, 2050 ± 200 µM; in the data set “purified protein [4]” (pH 8.5, 30 °C), 8830 ± 1210 µM; in data set [5], 322 ± 13 µM. The Vmax in “purified protein [1]” worked out at 141 µmol/min/mg; in “purified protein [2]” (pH 8.5, 30 °C) it was 28.9 µmol/min/mg; in the data set “purified protein [3]”, 153 µmol/min/mg; in “purified protein [4]” (pH 8.5, 30 °C), 49.3 µmol/min/mg; in [5], 32.4 µmol/min/mg. For the same protein, the turnover number (kcat) in “purified protein [1]” was 135 ± 1 s⁻¹; in the data set “purified protein [2]” (pH 8.5, 30 °C) it was 27.6 ± 0.5 s⁻¹; in “purified protein [3]”, 146 ± 4 s⁻¹; in “purified protein [4]” (pH 8.5, 30 °C) it was 47 ± 3.3 s⁻¹; in [5] it was 30.9 ± 0.3 s⁻¹. In addition, the kcat/Km in “purified protein [1]” is 2.07e+06 M⁻¹ s⁻¹; in “purified protein [2]” (pH 8.5, 30 °C), 6.3e+06 M⁻¹ s⁻¹; in “purified protein [3]”, 71300 M⁻¹ s⁻¹; in the data set “purified protein [4]” (pH 8.5, 30 °C), 5320 M⁻¹ s⁻¹; in [5], 96200 M⁻¹ s⁻¹.

B2: EcDQD/SDH4a (EcQDHa) (Eucalyptus camaldulensis) (protein)
chain: GSLSLSSVGLTMVCAPVMGESVDQVVEEMHKAKAQGADVVEVRLDCIKQFQAHQDLEIILKSKPLPVIIVYRPKCEGGLYEGDETARLEALRSALKLGADYVDFELKVAAELMSKQNKLHCGGTKVIVSCFLDGVTPSKEELSNLATHMKATGADIIKIVTSASNITELAGLFHLLSYSQMPVVAYAVGERGLISQLLSPKFGSTLVYGSIEGMAVPGLPTLESLRKTYKVEHINSDTTVFGLISKPVGHSKGPILHNPTLRHMNFNGLYVPMFVDNLKEFFEVYSTPDFAGFSVGFPYKEAVIQFCDEVHPLAQTIGAVNTIVRRPSDGKLIGYNTDCEASVTAMEDALQECRCINGEKSLVSPLAGKEFVLVGAGGAGRALAFGAKTRGARIIIFDIDFERAKMLAHAVSGEARPFGDLPYFQPEKGSILANATPIGMHPNKDRIPVSEASLGVFQLVFDAVYTPRKTTLLKEAEAAGAITVSGVEMFLRQAIGQFNLFTGGEAPKEFMREIVLAKF
Regarding B2, in “purified protein [6]”, the Km amounted to 53.7 ± 1.7 µM, the maximal velocity (Vmax) is 148 µmol/min/mg, the catalytic constant (kcat) is 139 ± 1 s⁻¹ and the kcat/Km was determined as 2.59e+06 M⁻¹ s⁻¹. Further, in the data set “purified protein [7]”, the Km turned out to be 164 ± 10 µM, the Vmax is 135 µmol/min/mg, the kcat amounted to 127 ± 2 s⁻¹ and the kcat/Km was 771000 M⁻¹ s⁻¹. In addition, in “purified protein [8]”, the Km came to 102 ± 9 µM, the Vmax is 318 µmol/min/mg, the kcat was 298 ± 8 s⁻¹ and the kcat/Km was found to be 2.92e+06 M⁻¹ s⁻¹. Besides, in the data set “purified protein [9]”, the Km was 1400 ± 120 µM, the Vmax worked out at 300 µmol/min/mg, the kcat stood at 281 ± 7 s⁻¹ and the kcat/Km worked out at 201000 M⁻¹ s⁻¹.

B3: EcDQD/SDH3 (Eucalyptus camaldulensis) (protein)
chain: GSVPFTTSDLQTSTSGFRSSPTLLCTPLMGTTVDQMLIEMRKAKEIGADLVEIRLDCLRNFNPHQDLQILIKQSPLPTLVTYRPVWEGGQYEGDESKRQDALRLAMQLGAHYIDVELEVAHDFNSSILGKKPDNFKIIVSSHNFHNTPSAEAIGNLVARIQATGADIAKIATTALDITDCARIFQITVHSQIPIIGIVMGERGLISRILSPKFGGYLTYGALEAGAISAPGQPTAKDLLDLYNFRLIRPDTKVYGIIGKPVGHSKSPLLFNASYKSVGLNAVYLHFLVDDVEKFFNTYSAVDFASGCSCTIPHKEAALKCMDEIDPIAKKIGAINNIVRRPDGTLTAFNTDYIGAISAIEDGLRGLNGVSSGASPLAGKLFVVLGAGGAGKSLAYGAAQKGARVVVANRTFERAKELADKVGGQAMTLAEVENFHPEEGMVLANTTSVGMKPKIDETPLAKHALKHYCLVFDAIYTPKDTRLLREARETGAVIVYGTEMLIRQGFEQYKNFTGLPAPEELFRTLMEKHA
notes: genome locus by order of listing EcC054875.120
In the case of B3, the Km in the data set “purified protein [1]” amounted to 41.5 ± 2.1 µM; in “purified protein [2]” (pH 6.5, 30 °C), 23.1 ± 1.4 µM; in the data set “purified protein [3]”, 3640 ± 360 µM; in “purified protein [4]” (pH 6.5, 30 °C), 878 ± 106 µM; in data set [10] it was 882 ± 42 µM. In addition, the Vmax in the data set “purified protein [1]” was 73.2 µmol/min/mg; in “purified protein [2]” (pH 6.5, 30 °C) it was 77.4 µmol/min/mg; in “purified protein [3]”, 84 µmol/min/mg; in “purified protein [4]” (pH 6.5, 30 °C), 60 µmol/min/mg; in data set [10] it was 3.83 µmol/min/mg. Besides, the kcat in the data set “purified protein [1]” was 70.2 ± 0.6 s⁻¹; in “purified protein [2]” (pH 6.5, 30 °C), 74.1 ± 1.2 s⁻¹; in the data set “purified protein [3]” it was 80.7 ± 2.9 s⁻¹; in “purified protein [4]” (pH 6.5, 30 °C), 57.6 ± 1.7 s⁻¹; in data set [10] it was 3.67 ± 0.05 s⁻¹. The kcat/Km in the data set “purified protein [1]” was found to be 1.69e+06 M⁻¹ s⁻¹; in the data set “purified protein [2]” (pH 6.5, 30 °C), 3.21e+06 M⁻¹ s⁻¹; in the data set “purified protein [3]” it was 22200 M⁻¹ s⁻¹; in the data set “purified protein [4]” (pH 6.5, 30 °C) it was 65600 M⁻¹ s⁻¹; in data set [10] it was 4160 M⁻¹ s⁻¹.

B4: EcDQD/SDH1 (Eucalyptus camaldulensis) (protein)
chain: ASTGNVLLATSSAPHEMESGAVRKNSTLICVPVMADSVEEMVIQLDKAKSSGADLVEIRVDSLKNLSPHEDLKTLIKASALPTLFTYRPKWEGGQYDGDDKPRLETLRLAMELGADYIDVELKVASEFNASIQGRKPEKCKVIVSSHNYENTPSAEDLSNLVARIQAAGADIVKIATTALDITDVERMFHITVHSQVSSVPVIGMVMGERGLISRVLCAKFGGFLTFGTLESGVVSAPGQPTIKDLLDLYNFRSIGPDTKVFGIIGKPVGHSKSPLLYNQAFKSAGFDGVFLHLLVDDVASFLQTYSSTDFAGFSCTIPHKEAAVKCCDEVDPVAKSIGAVNCIIRRQSDAKLFGYNTDYVGAISAIEDGLRGSQNGNSAGASPLNGKLFVVIGAGGAGKALGYGAKEKGARVVIANRTYDRARELAETIGGDALSLADLENFHPEDGMILANTTSIGMQPKVDETPIPKHALKHYSLVFDAVYTPKITRLLKEAEECGATIVSGLEMFIGQAYGQYERYTGLPAPKELFRKIMSKY
notes: genome locus by order of listing EcC055014.20
On to B4, for which the Km in data set [11] is 449 ± 22 µM; in the data set “purified protein [1]” it was 56.5 ± 2.3 µM; in the data set “purified protein [2]” (pH 6.5, 30 °C) it was 49.5 ± 3.6 µM; in “purified protein [3]”, 32.6 ± 1.9 µM; in the data set “purified protein [4]” (pH 6.5, 30 °C) it was 381 ± 34 µM. For the same protein, the Vmax in [11] is 63 µmol/min/mg; in “purified protein [1]”, 822 ± 6 µmol/min/mg; in the data set “purified protein [2]” (pH 6.5, 30 °C), 404 µmol/min/mg; in the data set “purified protein [3]”, 780 ± 6 µmol/min/mg; in “purified protein [4]” (pH 6.5, 30 °C), 318 µmol/min/mg. Also, the kcat was 60.4 ± 0.7 s⁻¹ in data set [11]; 792 ± 6 s⁻¹ in the data set “purified protein [1]”; 389 ± 9 s⁻¹ in “purified protein [2]” (pH 6.5, 30 °C); 755 ± 6 s⁻¹ in the data set “purified protein [3]”; 307 ± 5 s⁻¹ in the data set “purified protein [4]” (pH 6.5, 30 °C). In addition, the kcat/Km in data set [11] is 135000 M⁻¹ s⁻¹; in the data set “purified protein [1]”, 1.4e+07 M⁻¹ s⁻¹; in the data set “purified protein [2]” (pH 6.5, 30 °C), 7.86e+06 M⁻¹ s⁻¹; in “purified protein [3]”, 2.32e+07 M⁻¹ s⁻¹; in “purified protein [4]” (pH 6.5, 30 °C), 805000 M⁻¹ s⁻¹.
